In assay [1] the target is Milano tail tube protein, gp21 (Agrobacterium tumefaciens bacteriophage Milano). Put plainly: cryo-EM structure; extended (pre-attachment) tail of purified native Milano virions; curved tail segments reconstructed with no imposed symmetry; the straight baseplate-proximal segment was extracted from the baseplate junction structure.
Assay [2] concerns the target Milano Short Tail Fiber (STF), gp31 (Agrobacterium tumefaciens bacteriophage Milano). Description: cryo-EM structure; baseplate junction of purified native Milano virions in the extended state, single particle analysis with C3 symmetry, ~3.2 Å; distal parts of the receptor-binding proteins and the garland only rigid-body fitted with AlphaFold models.
The target of assay [3] is Milano Tail Spike Protein (TSP), gp124 (Agrobacterium tumefaciens bacteriophage Milano). Described as above.

As a reminder, the stoichiometry N is the number of molecules, sites or subunits per partner or assembly.

“Milano tail tube protein, gp21 (natural protein)” registered a stoichiometry N in assay [1] of 6.

In turn, “Milano Short Tail Fiber (STF), gp31 (natural protein)” gave a stoichiometry N in assay [2] of 3.

Take “Milano Tail Spike Protein (TSP), gp124 (natural protein)”: the stoichiometry N in assay [3] was found to be 3.

The values are drawn from publication PMC10811340.
